Source: patent publication US20140072613A1, “Compositions and Methods for Treating Cutaneous Scarring” (priority 2012, published 2014)

Experiments:
Experiment in all cases: cell-based or functional assay
BrSK2(h) (human) = molecular target: T1, BrSK2(h) (human) (UniProt Q8IWQ3)
T1 sequence (looked up): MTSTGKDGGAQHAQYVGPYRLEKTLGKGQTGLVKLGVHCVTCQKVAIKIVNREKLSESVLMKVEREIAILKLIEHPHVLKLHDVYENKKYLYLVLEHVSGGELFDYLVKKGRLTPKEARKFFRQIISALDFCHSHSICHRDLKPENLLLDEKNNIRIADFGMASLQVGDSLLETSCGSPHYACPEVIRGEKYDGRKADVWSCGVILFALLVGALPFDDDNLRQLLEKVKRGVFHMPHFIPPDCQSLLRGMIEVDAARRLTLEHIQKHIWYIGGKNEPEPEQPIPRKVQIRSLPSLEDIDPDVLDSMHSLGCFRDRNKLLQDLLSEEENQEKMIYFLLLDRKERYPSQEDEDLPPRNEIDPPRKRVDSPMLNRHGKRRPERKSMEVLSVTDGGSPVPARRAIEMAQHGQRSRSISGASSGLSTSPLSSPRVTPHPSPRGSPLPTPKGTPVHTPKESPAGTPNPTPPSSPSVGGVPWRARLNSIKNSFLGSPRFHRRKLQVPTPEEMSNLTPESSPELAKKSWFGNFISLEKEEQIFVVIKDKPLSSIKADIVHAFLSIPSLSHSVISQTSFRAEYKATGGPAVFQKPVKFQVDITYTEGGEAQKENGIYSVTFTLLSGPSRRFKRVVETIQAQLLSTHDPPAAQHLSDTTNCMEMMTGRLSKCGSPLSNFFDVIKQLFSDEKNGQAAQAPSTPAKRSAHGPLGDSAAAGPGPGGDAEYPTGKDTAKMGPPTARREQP

MINK(h) (human) = MINK(h) (human) (UniProt Q8N4C8)
Sequence of MINK(h) (human) (Q8N4C8 1-320 limits assumed): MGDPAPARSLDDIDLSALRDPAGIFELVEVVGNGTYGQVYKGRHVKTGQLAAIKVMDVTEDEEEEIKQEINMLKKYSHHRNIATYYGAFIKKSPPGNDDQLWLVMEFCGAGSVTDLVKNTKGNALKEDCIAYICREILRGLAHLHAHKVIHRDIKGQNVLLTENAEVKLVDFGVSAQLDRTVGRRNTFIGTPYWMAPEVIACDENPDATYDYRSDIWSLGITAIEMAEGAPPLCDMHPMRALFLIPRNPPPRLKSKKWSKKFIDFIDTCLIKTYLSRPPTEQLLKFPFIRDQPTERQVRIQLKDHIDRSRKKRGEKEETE

GSK3α(h) (human) = GSK3α(h) (human) (UniProt P49840)
Sequence of GSK3α(h) (human) (P49840 whole entry): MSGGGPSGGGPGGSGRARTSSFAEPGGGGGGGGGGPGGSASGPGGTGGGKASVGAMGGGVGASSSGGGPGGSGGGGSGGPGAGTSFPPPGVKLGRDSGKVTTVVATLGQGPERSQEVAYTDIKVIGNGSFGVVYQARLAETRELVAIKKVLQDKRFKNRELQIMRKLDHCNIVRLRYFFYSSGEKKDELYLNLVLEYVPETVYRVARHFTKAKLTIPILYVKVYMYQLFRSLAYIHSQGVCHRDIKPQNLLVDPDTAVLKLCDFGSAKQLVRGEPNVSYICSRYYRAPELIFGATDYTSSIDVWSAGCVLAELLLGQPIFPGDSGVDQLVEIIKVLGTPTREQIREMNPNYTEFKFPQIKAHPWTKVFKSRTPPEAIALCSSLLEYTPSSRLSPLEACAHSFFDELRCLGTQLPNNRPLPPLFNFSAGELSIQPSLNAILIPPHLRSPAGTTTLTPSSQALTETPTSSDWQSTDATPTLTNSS

Ret(h) (human) = molecular target: T2, Ret(h) (human) (UniProt P07949)
T2 sequence (looked up): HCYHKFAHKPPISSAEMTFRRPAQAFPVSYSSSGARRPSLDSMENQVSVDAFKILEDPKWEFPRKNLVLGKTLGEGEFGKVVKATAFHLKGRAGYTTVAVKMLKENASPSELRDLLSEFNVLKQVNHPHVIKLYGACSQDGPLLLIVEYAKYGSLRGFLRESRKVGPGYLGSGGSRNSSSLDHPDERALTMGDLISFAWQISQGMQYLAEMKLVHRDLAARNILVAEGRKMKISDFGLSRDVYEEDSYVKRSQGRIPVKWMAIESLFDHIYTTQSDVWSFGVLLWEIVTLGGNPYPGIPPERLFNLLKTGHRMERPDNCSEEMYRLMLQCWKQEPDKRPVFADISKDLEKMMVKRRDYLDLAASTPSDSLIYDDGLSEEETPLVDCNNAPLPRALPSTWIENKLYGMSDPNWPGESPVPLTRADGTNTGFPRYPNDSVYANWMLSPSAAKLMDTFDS

CK1δ(h) (human) = CK1δ(h) (human) (UniProt P48730)
Sequence of CK1δ(h) (human) (P48730 1-294, stated change not applied): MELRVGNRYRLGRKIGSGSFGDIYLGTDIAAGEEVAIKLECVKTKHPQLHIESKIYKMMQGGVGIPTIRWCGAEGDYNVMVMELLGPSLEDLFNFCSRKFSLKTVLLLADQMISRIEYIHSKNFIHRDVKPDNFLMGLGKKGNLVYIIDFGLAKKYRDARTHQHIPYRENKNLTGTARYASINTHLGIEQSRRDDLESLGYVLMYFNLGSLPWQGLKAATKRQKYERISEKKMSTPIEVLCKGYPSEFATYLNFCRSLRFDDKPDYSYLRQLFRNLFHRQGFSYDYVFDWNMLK

cKit(V560G)(h) (human) = cKit(V560G)(h) (human) (UniProt P10721)
Sequence of cKit(V560G)(h) (human) (P10721 544-976 V560G): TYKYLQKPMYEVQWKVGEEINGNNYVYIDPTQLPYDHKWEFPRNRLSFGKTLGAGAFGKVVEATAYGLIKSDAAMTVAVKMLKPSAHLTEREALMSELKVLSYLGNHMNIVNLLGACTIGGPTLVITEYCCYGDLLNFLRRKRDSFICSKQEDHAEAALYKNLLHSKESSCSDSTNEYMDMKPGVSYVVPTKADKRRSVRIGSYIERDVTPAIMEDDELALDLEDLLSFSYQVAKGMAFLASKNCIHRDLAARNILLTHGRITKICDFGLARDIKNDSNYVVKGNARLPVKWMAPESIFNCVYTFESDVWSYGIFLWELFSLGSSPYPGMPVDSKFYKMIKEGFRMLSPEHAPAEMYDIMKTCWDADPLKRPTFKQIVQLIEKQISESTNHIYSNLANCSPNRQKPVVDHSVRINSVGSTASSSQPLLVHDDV

EphA8(h) (human) = molecular target: T3, EphA8(h) (human) (UniProt P29322)
T3 sequence (looked up): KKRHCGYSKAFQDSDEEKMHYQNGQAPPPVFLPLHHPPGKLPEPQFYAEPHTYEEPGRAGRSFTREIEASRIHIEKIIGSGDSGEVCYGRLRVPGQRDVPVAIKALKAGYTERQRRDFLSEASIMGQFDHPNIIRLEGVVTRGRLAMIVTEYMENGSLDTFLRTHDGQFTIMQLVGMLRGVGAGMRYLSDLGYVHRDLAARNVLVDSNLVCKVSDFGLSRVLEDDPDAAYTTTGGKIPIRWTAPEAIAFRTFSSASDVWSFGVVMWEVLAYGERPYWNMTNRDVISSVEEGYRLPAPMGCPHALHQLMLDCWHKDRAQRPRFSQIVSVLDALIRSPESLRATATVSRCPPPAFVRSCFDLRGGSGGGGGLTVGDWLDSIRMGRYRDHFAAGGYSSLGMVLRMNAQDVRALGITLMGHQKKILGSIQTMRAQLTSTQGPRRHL

Bmx(h) (human) = molecular target: T4, Bmx(h) (human) (UniProt P51813)
T4 sequence (looked up): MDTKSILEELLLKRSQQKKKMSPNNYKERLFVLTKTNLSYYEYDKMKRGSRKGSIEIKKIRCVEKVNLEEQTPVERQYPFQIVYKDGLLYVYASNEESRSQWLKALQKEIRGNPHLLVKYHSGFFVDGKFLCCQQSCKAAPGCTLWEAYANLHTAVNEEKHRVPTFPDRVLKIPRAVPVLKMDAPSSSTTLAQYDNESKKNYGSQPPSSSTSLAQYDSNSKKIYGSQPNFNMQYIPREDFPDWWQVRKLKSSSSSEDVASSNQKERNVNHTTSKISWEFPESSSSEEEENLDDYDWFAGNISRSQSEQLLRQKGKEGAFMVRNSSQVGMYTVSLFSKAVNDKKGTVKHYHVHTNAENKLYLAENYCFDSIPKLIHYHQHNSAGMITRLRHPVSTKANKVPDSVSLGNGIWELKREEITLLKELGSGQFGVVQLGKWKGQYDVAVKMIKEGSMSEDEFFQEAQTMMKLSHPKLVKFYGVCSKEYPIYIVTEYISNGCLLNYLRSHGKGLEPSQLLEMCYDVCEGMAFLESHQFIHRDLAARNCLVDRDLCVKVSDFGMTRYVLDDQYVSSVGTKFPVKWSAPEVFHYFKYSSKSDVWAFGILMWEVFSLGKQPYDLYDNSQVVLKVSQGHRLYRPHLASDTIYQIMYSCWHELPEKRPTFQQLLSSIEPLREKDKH

DMPK(h) (human) = DMPK(h) (human) (UniProt Q09013)
Sequence of DMPK(h) (human) (Q09013 whole entry): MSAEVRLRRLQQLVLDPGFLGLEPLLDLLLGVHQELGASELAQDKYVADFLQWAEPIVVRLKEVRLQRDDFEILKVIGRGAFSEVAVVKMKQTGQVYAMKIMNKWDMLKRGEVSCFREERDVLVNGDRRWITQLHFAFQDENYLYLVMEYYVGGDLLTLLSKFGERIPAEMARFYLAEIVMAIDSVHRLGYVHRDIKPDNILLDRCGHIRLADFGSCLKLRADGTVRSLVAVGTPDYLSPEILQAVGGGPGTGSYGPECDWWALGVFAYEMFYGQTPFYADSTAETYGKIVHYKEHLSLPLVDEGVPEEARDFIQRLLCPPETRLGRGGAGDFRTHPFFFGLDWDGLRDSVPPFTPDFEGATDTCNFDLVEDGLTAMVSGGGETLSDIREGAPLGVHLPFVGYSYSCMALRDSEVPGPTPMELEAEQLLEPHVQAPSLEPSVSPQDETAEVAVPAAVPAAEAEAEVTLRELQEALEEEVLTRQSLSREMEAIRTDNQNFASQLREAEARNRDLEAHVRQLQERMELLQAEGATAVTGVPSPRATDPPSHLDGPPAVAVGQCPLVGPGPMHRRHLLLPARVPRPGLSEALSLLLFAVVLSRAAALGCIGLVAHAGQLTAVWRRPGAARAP

AMPKα2(h) (human) = AMPKα2(h) (human) (UniProt P54646)
Sequence of AMPKα2(h) (human) (P54646 whole entry): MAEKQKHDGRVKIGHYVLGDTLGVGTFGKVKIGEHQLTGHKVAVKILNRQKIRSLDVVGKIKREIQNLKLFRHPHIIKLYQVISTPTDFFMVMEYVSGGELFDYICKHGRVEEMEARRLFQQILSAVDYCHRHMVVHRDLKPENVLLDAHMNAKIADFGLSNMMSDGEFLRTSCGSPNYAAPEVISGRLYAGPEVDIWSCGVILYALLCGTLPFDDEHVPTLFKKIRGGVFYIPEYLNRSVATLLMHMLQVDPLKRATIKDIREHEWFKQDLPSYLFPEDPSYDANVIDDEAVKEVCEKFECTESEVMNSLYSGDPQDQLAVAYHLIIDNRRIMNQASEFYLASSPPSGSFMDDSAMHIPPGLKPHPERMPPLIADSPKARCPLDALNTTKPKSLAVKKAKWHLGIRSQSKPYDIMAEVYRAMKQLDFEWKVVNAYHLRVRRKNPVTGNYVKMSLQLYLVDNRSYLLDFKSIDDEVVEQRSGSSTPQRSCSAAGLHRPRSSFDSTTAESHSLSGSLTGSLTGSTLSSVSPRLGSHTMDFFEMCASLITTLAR

PAR-1Bα(h) (human) = PAR-1Bα(h) (human) (UniProt Q7KZI7)
Sequence of PAR-1Bα(h) (human) (Q7KZI7 other isoform, or with tags, fused parts or gaps limits assumed): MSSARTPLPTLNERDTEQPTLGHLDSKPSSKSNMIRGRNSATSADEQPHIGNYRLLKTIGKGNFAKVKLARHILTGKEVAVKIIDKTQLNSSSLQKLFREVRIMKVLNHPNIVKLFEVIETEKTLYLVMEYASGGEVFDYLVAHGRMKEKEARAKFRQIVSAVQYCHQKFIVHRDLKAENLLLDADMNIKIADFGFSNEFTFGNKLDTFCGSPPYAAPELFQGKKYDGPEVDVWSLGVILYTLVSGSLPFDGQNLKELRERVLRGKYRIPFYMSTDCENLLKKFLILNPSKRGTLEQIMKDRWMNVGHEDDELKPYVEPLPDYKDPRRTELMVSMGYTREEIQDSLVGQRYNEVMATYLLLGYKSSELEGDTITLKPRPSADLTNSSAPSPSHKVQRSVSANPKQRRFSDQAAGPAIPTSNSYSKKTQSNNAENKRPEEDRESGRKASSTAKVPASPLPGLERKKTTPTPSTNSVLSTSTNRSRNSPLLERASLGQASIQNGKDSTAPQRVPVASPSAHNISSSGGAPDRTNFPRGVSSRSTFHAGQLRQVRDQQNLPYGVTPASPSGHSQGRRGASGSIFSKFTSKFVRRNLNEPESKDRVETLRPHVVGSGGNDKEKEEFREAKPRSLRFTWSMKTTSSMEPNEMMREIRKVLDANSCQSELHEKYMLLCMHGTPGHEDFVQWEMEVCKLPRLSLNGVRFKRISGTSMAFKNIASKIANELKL

% activity, 100 µM (BrSK2(h) (human)): 84%
% activity, 100 µM (MINK(h) (human)): 5%
% activity, 100 µM (GSK3α(h) (human)): 175%
% activity, 100 µM (Ret(h) (human)): 174%
% activity, 100 µM (CK1δ(h) (human)): 78%
% activity, 100 µM (cKit(V560G)(h) (human)): 198%
% activity, 100 µM (EphA8(h) (human)): 337%
% activity, 100 µM (Bmx(h) (human)): 45%
% activity, 100 µM (DMPK(h) (human)): 12%
% activity, 100 µM (AMPKα2(h) (human)): 9%
% activity, 100 µM (PAR-1Bα(h) (human)): 97%
Substance: MMI-0500 (peptide)
